Results as given in PMC12273918 (2025).

Legend:
CD163 42-1045 = CD163 42-1045 (Homo sapiens, UniProt Q86VB7); assay: SPR
CD163 D1-D5 = molecular target: T1, CD163 D1-D5 (Homo sapiens, UniProt Q86VB7); assay: SPR
T1 chain: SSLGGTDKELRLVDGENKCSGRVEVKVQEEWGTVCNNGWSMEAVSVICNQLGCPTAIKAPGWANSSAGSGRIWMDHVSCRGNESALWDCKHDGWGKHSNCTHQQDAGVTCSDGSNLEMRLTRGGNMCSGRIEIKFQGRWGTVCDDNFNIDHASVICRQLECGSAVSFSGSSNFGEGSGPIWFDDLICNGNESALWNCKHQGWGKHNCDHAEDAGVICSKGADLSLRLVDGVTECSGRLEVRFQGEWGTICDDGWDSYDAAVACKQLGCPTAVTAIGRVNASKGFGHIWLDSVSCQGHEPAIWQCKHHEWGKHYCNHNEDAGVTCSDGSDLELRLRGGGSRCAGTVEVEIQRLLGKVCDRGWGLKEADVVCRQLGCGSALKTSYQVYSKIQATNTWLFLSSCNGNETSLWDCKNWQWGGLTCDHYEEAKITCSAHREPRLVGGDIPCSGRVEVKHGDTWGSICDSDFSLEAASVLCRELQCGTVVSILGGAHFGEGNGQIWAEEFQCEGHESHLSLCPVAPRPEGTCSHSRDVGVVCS

B1: Haptoglobin(1-1)-hemoglobin complex (protein)
chain 1: VDSGNDVTDIADDGCPKPPEIAHGYVEHSVRYQCKNYYKLRTEGDGVYTLNDKKQWINKAVGDKLPECEADDGCPKPPEIAHGYVEHSVRYQCKNYYKLRTEGDGVYTLNNEKQWINKAVGDKLPECEAVCGKPKNPANPVQRILGGHLDAKGSFPWQAKMVSHHNLTTGATLINEQWLLTTAKNLFLNHSENATAKDIAPTLTLYVGKKQLVEIEKVVLHPNYSQVDIGLIKLKQKVSVNERVMPICLPSKDYAEVGRVGYVSGWGRNANFKFTDHLKYVMLPVADQDQCIRHYEGSTVPEKKTPKSPVGVQPILNEHTFCAGMSKYQEDTCYGDAGSAFAVHDLEEDTWYATGILSFDKSCAVAEYGVYVKVTSIQDWVQKTIAEN
chain 2: not shown
chain 3: not shown
modifications: Ca2+ (5 mM CaCl2), biotinylated Hp(1-1) immobilized
Kd (CD163 42-1045): ~72 nM
Kd (CD163 D1-D5): ~684 nM
